Patent publication US20250145722A1, “ANTI-GAL3 ANTIBODIES AND METHODS OF USE” (TrueBinding, Inc., priority 2020, published 2025)

What was measured:
[1] = target: human Galectin-3 (Gal3), full-length recombinant (human) (UniProt P17931); test: blocking ELISA, Gal3 coated, VEGFR3-Fc, antibody 20 µg/ml
[2] = target: human Galectin-3 (Gal3), full-length recombinant (human) (UniProt P17931); test: blocking ELISA, Gal3 coated, PDGFR beta-Fc, antibody 20 µg/ml
[3] = target: human Galectin-3 (Gal3), full-length recombinant (human) (UniProt P17931); test: blocking ELISA, Gal3 coated, biotin-TLR4
[4] = target: human Galectin-3 (Gal3), full-length recombinant (human) (UniProt P17931); test: blocking ELISA, Gal3 coated, biotin-APP695
[5] = target: human Galectin-3 (Gal3), full-length recombinant (human) (UniProt P17931); test: blocking ELISA, Gal3 coated, TREM2-His
[6] = target: human Galectin-3 (Gal3), full-length recombinant (human) (UniProt P17931); test: blocking ELISA, Gal3 coated, PDGFR alpha-Fc, antibody 20 µg/ml
[7] = target: human Galectin-3 (Gal3), full-length recombinant (human) (UniProt P17931); test: blocking ELISA, Gal3 coated, EGFR-Fc, antibody 20 µg/ml
[8] = target: human Galectin-3 (Gal3), full-length recombinant (human) (UniProt P17931); test: blocking ELISA, Gal3 coated, biotin-Tau aggregates
[9] = target: human Galectin-3 (Gal3), full-length recombinant (human) (UniProt P17931); test: blocking ELISA, Gal3 coated, biotin-Abeta42 peptide
[10] = target: human Galectin-3 (Gal3), full-length recombinant (human) (UniProt P17931); test: blocking ELISA, Gal3 coated, biotin-α-synuclein aggregates
[11] = target: human Galectin-3 (Gal3), full-length recombinant (human) (UniProt P17931); test: blocking ELISA, Gal3 coated, biotin-Abeta42 oligomer
[12] = target: cynomolgus Gal3 (cynomolgus); test: not stated (FIG. 50)

human Galectin-3 (Gal3), full-length recombinant (human), sequence (P17931 2-250 limits assumed): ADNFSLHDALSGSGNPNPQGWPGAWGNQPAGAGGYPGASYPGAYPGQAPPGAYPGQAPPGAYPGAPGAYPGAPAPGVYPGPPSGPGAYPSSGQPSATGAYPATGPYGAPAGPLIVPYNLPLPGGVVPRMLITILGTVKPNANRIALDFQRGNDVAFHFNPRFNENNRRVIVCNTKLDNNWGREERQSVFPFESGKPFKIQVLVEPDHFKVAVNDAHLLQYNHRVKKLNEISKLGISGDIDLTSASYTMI

| % blocking of Gal3-TLR4 binding [3] [%] | % blocking of Gal3-APP695 binding [4] [%] | % blocking of Gal3-TREM2 binding [5] [%] | % blocking of Gal3-Tau aggregates binding [8] [%] | Kd [12] [nM] | Binder | further results |
| --- | --- | --- | --- | --- | --- | --- |
| > 90 | > 90 | > 90 | – | – | 7D8.2D8 (antibody, mouse IgG2a, V domains shown) VH: EVQLVESGGGLVKPGGSLKLSCAASGFTFSSYAMSWVRQTPEKRLEWVATISDGGIYTYYPDNVKGRFTISRDNAKNNLFLQMSHLKSEDTAMYYCVRDGGYWGQGTTLTVSS VL: DVLMTQTPLSLPVSLGDQASISCRSSQSIVHSNGNTYLEWYLQKPGQSPKLLIYKVSNRFSGVPDRFSGSGSGTDFTLKISRVEAEDLGVYYCFQGSHVPLTFGAGTKLELKR | % blocking of Gal3-VEGFR3 binding [1]: < 30%; % blocking of Gal3-PDGFR beta binding [2]: < 30%; % blocking of Gal3-PDGFR alpha binding [6]: < 30%; % blocking of Gal3-EGFR binding [7]: < 30% |
| > 90 | > 90 | > 90 | < 50 | – | 15F10.2D6 (antibody, mouse IgG2a, V domains shown) VH: EVQLVESGGGLVKPGGSLKLSCAASGFAFSSYAMSWVRQTPEKRLEWVATISDGGVYTYYTDHVKGRFTISRDNAEDNLYLQMSHLKSEDTAMYYCVRDGGYWGQGTTLTVSS VL: DVLMTQTPLSLPVSLGDQASISCRSSQSIVHNNGNTYLEWYLQKPGQSPKLLIYKVSNRFSGVPDRFSGSGSGTDFTLKISRVEAEDLGVYYCFQGSHVPLTFGGGTKLELKR | – |
| – | > 86 | – | < 50 | – | 12G5.D7 (antibody, from a related filing, V domains shown) VH: QVQLKQSGAELVRPGASVKLSCKASGYTFTDYYINWVKQRPGQGLEWIARIYPGTGNTDYNEKFKGRATLTAEKSSSTAYMQLSSLTSEDSAVYFCARFAYYYGSGGYFDYWGHGTTLTVSS VL: DILMTQSPSSMSVSLGDTVSITCHASQGINSNMGWLQQKPGKSFKGLIYHATNLEDGVPSRFSGSGSGADYSLTISSLESEDFADYYCVQYAQFPPTFGSGTKLEIK | % blocking of Gal3-Abeta42 peptide binding [9]: < 46%; % blocking of Gal3-α-synuclein aggregates binding [10]: < 50%; % blocking of Gal3-Abeta42 oligomer binding [11]: < 26% |
| – | – | – | – | 8.9 | TB001 (antibody, IgG4, V domains shown) VH: QVQLVQSGSELKKPGASVKVSCKASGYTFTNYGMNWVRQAPGQGLKWMGWINTNTGEPTYVEEFTGRFVFSLETSVSTAYLQISSLKAEDTAVYFCAPYDNFFAYWGQGTTVTVSS VL: DIVLTQSPLSLPVTPGEPASISCRSSKSLLYKDGKTYLNWFLQKPGQSPQLLIYLMSTHASGVPDRFSGSGSGTDFTLKISRVEAEDVGVYYCQQLVDYPLTFGGGTKLEIKR | – |
| – | – | – | – | 5.1 | TB006 (antibody, V domains shown) VH: QVQLVQSGAEVKKPGASVKVSCKASGYSFTNYYMHWVRQAPGQRLEWMGWIYPGSGNTNYNEKFQGRVTITADTSASTAYMELSSLRSEDTAVYYCSTAPGGFDVWGQGTTVTVSS VL: DIVMTQTPLSLSVTPGQPASISCKSSKSLLHSDGITYLYWYLQKPGQSPQLLIYRMSNLASGVPDRFSGSGSGTDFTLKISRVEAEDVGVYYCAQMLEFPLTFGQGTKLEIKR | – |
